We go through five proteins from publication PMC12016152.

The nature of data set [1]: surface biotinylation, western blot, CHO (n = 2). Particulars: glycan lost; control: ASIC1a + ASIC4WT. For orientation: A western blot detects proteins with antibodies after separation by electrophoresis.
Data set [2] in a line: whole-cell patch clamp, pH 5.0 peak current density, CHO. Particulars: glycan lost; control: ASIC1a + ASIC4WT. On the technique in general: In patch-clamp work, channel activity is measured electrically.
A short description of data set [3]: amygdala cell surface fraction, western blot, Asic4-/- mice. Particulars: glycan lost; control: AAV-DIO-ASIC4WT rescue.

B1: ASIC4: ASIC4N376A (protein)
parent chain: MPIEIVCKIKFAEEDAKPKEKEAGDEQSLLGAAQGPAAPRDLATFASTSTLHGLGRACGPGPHGLRRTLWALALLTSLAAFLYQAASLARGYLTRPHLVAMDPAAPAPVAGFPAVTLCNINRFRHSALSDADIFHLANLTGLPPKDRDGHRAAGLRYPEPDMVDILNRTGHQLADMLKSCNFSGHHCSASNFSVVYTRYGKCYTFNADPQSSLPSRAGGMGSGLEIMLDIQQEEYLPIWRETNETSFEAGIRVQIHSQEEPPYIHQLGFGVSPGFQTFVSCQEQRLTYLPQPWGNCRAESELREPELQGYSAYSVSACRLRCEKEAVLQRCHCRMVHMPGNETICPPNIYIECADHTLDSLGGGSEGPCFCPTPCNLTRYGKEISMVKIPNRGSARYLARKYNRNETYIRENFLVLDVFFEALTSEAMEQQAAYGLSALLGDLGGQMGLFIGASILTLLEILDYIYEVSWDRLKRVWRRPKTPLRTSTGGISTLGLQELKEQSPCPSRGRAEGGGASSLLPNHHHPHGPPGSLFEDFAC
In the case of B1, in data set [1], the “other: surface expression of co-expressed ASIC1a” value was “no change”. Besides, in data set [2], the “other: channel current of co-expressed ASIC1a” value (shortened to “other: channel current”) is recorded as “no change”.

B2: ASIC4: ASIC4N243A (protein)
parent chain: MPIEIVCKIKFAEEDAKPKEKEAGDEQSLLGAAQGPAAPRDLATFASTSTLHGLGRACGPGPHGLRRTLWALALLTSLAAFLYQAASLARGYLTRPHLVAMDPAAPAPVAGFPAVTLCNINRFRHSALSDADIFHLANLTGLPPKDRDGHRAAGLRYPEPDMVDILNRTGHQLADMLKSCNFSGHHCSASNFSVVYTRYGKCYTFNADPQSSLPSRAGGMGSGLEIMLDIQQEEYLPIWRETNETSFEAGIRVQIHSQEEPPYIHQLGFGVSPGFQTFVSCQEQRLTYLPQPWGNCRAESELREPELQGYSAYSVSACRLRCEKEAVLQRCHCRMVHMPGNETICPPNIYIECADHTLDSLGGGSEGPCFCPTPCNLTRYGKEISMVKIPNRGSARYLARKYNRNETYIRENFLVLDVFFEALTSEAMEQQAAYGLSALLGDLGGQMGLFIGASILTLLEILDYIYEVSWDRLKRVWRRPKTPLRTSTGGISTLGLQELKEQSPCPSRGRAEGGGASSLLPNHHHPHGPPGSLFEDFAC
As for B2, the “other: surface expression of co-expressed ASIC1a” value in data set [1] was “no change”. Moreover, the “other: surface expression of ASIC1a in vivo” value in data set [3] was “no change”. For the same protein, the “other: channel current” value in data set [2] is “no change”.

B3: ASIC4: ASIC4N191A, N243A, N341A, N376A (protein)
parent chain: MPIEIVCKIKFAEEDAKPKEKEAGDEQSLLGAAQGPAAPRDLATFASTSTLHGLGRACGPGPHGLRRTLWALALLTSLAAFLYQAASLARGYLTRPHLVAMDPAAPAPVAGFPAVTLCNINRFRHSALSDADIFHLANLTGLPPKDRDGHRAAGLRYPEPDMVDILNRTGHQLADMLKSCNFSGHHCSASNFSVVYTRYGKCYTFNADPQSSLPSRAGGMGSGLEIMLDIQQEEYLPIWRETNETSFEAGIRVQIHSQEEPPYIHQLGFGVSPGFQTFVSCQEQRLTYLPQPWGNCRAESELREPELQGYSAYSVSACRLRCEKEAVLQRCHCRMVHMPGNETICPPNIYIECADHTLDSLGGGSEGPCFCPTPCNLTRYGKEISMVKIPNRGSARYLARKYNRNETYIRENFLVLDVFFEALTSEAMEQQAAYGLSALLGDLGGQMGLFIGASILTLLEILDYIYEVSWDRLKRVWRRPKTPLRTSTGGISTLGLQELKEQSPCPSRGRAEGGGASSLLPNHHHPHGPPGSLFEDFAC
On to B3, for which, in data set [1], the “other: surface expression of co-expressed ASIC1a” value is recorded as “increases”. The “other: channel current” value in data set [2] is on record as “increases”.

B4: ASIC4: ASIC4N341A (protein)
parent chain: MPIEIVCKIKFAEEDAKPKEKEAGDEQSLLGAAQGPAAPRDLATFASTSTLHGLGRACGPGPHGLRRTLWALALLTSLAAFLYQAASLARGYLTRPHLVAMDPAAPAPVAGFPAVTLCNINRFRHSALSDADIFHLANLTGLPPKDRDGHRAAGLRYPEPDMVDILNRTGHQLADMLKSCNFSGHHCSASNFSVVYTRYGKCYTFNADPQSSLPSRAGGMGSGLEIMLDIQQEEYLPIWRETNETSFEAGIRVQIHSQEEPPYIHQLGFGVSPGFQTFVSCQEQRLTYLPQPWGNCRAESELREPELQGYSAYSVSACRLRCEKEAVLQRCHCRMVHMPGNETICPPNIYIECADHTLDSLGGGSEGPCFCPTPCNLTRYGKEISMVKIPNRGSARYLARKYNRNETYIRENFLVLDVFFEALTSEAMEQQAAYGLSALLGDLGGQMGLFIGASILTLLEILDYIYEVSWDRLKRVWRRPKTPLRTSTGGISTLGLQELKEQSPCPSRGRAEGGGASSLLPNHHHPHGPPGSLFEDFAC
In the case of B4, in data set [1], the “other: surface expression of co-expressed ASIC1a” value is given as “increases”. For the same protein, in data set [2], the “other: channel current” value was “increases”.

B5: ASIC4: ASIC4N191A (protein)
parent chain: MPIEIVCKIKFAEEDAKPKEKEAGDEQSLLGAAQGPAAPRDLATFASTSTLHGLGRACGPGPHGLRRTLWALALLTSLAAFLYQAASLARGYLTRPHLVAMDPAAPAPVAGFPAVTLCNINRFRHSALSDADIFHLANLTGLPPKDRDGHRAAGLRYPEPDMVDILNRTGHQLADMLKSCNFSGHHCSASNFSVVYTRYGKCYTFNADPQSSLPSRAGGMGSGLEIMLDIQQEEYLPIWRETNETSFEAGIRVQIHSQEEPPYIHQLGFGVSPGFQTFVSCQEQRLTYLPQPWGNCRAESELREPELQGYSAYSVSACRLRCEKEAVLQRCHCRMVHMPGNETICPPNIYIECADHTLDSLGGGSEGPCFCPTPCNLTRYGKEISMVKIPNRGSARYLARKYNRNETYIRENFLVLDVFFEALTSEAMEQQAAYGLSALLGDLGGQMGLFIGASILTLLEILDYIYEVSWDRLKRVWRRPKTPLRTSTGGISTLGLQELKEQSPCPSRGRAEGGGASSLLPNHHHPHGPPGSLFEDFAC
Turning to B5, in data set [1], the “other: surface expression of co-expressed ASIC1a” value is on record as “increases”. For the same protein, the “other: surface expression of ASIC1a in vivo” value in data set [3] was “increases”. Moreover, the “other: channel current” value in data set [2] was “increases”.
